“Also recorded” adds a separate entry of the source.
What was measured:
HEK293T cells [1] = test: MORC4 localization and nuclear bodies (confocal microscopy); format: cell-based; settings: 127 cells quantified
Procedure: WT mCherry-MORC4, mCherry-MORC4 E56A, mCherry-MORC4 W435A, mCherry-MORC4 E56A/W435A, mCherry-MORC4 K460A/R462A/R463A, or mCherry control plasmid were transfected into 2 million 293T-HEK cells seeded on 25 mm circular coverslips (Carolina Biological Supply Item#: 633057) in 10-cm-diameter tissue culture dish by Lipofectamine 3000 (Life Technology, L3000-075) following the manufacturer’s instructions. Two days after transfection, cells were stained with Hoechst […] for 30 min and imaged live on a ZeissAxiovert 200 M inverted microscope fitted with a ×40 oil objective. Images were acquired with Slidebook 6 software and exported for analysis in Image J.
mCherry foci sizes were calculated using ImageJ image processing program (version 1.51) using the Analyze Particle tool. mCherry particle sizes were collected for MORC4 WT and MORC4 W435A transfected cells. Data were plotted with R (version 3.4.1) using ggplot2 (version 3.2.1). Cell size and mCherry foci count per cell were calculated using CellProfile cell image analysis software (version 3.1.5) to identify nuclei and mCherry foci, relate mCherry foci to nuclei containing them and measure the size of nuclei and number mCherry foci contained. Data were plotted with R (version 3.4.1) using ggplot2 (version 3.2.1).

601 DNA = test: EMSA with 601 DNA; format: binding; settings: 147 bp 601 DNA 5 pmol, pH 7.5, 150 mM NaCl, 0.5 h on ice, listed as E56A mutant of MORC4
Procedure: EMSA experiments were performed essentially as described. In brief, increasing amounts of WT or mutant CW or ATPaseCW cassette of MORC4 were incubated with 147 bp 601 DNA (5 pmol) or 50 ng of O’RangeRuler 5 bp ladder (Thermo Scientific) in a DNA-binding buffer containing 20 mM Tris-HCl (pH 7.5), 150 mM NaCl, 2.5 mM MgCl2, and 2 mM DTT for 0.5 h on ice. The reaction mixtures were loaded on 5% native polyacrylamide gels, and electrophoresis was performed in 0.2× Tris-borate-EDTA (TBE) buffer at 100 V for 1.2 h on ice. Gels were stained with SYBR Gold (Invitrogen).

MORC4 = test: ATPase activity assay (EnzChek Phosphate Assay Kit); format: biochemical, human; settings: listed as E56A mutant of MORC4
Procedure: To determine whether MORC4 is catalytically active, we produced the ATPase domain of human MORC4 and examined its ability to hydrolyze ATP in enzymatic assays (Fig. 1a–c). Following incubation of the ATPase domain with ATP, 2-amino-6-mercapto-7-methylpurine ribonucleoside and nucleoside phosphorylase, the release of inorganic phosphate generated by the hydrolysis of ATP to ADP was monitored by measuring an increase in absorbance at 360 nm.
The ATPase assays were performed using the EnzChek Phosphate Assay Kit (Invitrogen, item # E6646). The reactions were carried out on 1.0 µM of MORC4 His-ATPase or ATPaseCW (WT and mutants), in the presence and absence of 1 µM 601 DNA or 50 µM of unmodified H3 or H3K4me3 peptide (aa 1–12 of H3) in a buffer containing 50 mM Tris-HCl (pH 7.5), 150 mM NaCl, 1 mM MgCl2, 0.1 mM sodium azide, 200 µM MESG, and 1 U of PNP. In assay with the nucleosome, 0.5 µM of MORC4 ATPaseCW and 0.5 µM NCP167 (Activemotif) were used. The reaction was started by adding 2 mM ATP to the mixture at room temperature, and the release of inorganic phosphate was monitored by measuring the absorbance at 360 nm on a Nanodrop 2000c spectrophotometer (Thermo Scientific). In the presence of inorganic phosphate, produced by the hydrolysis of ATP to ADP, MESG is enzymatically converted to ribose 1-phosphate and […] by PNP, resulting in a shift in the wavelength absorbance from 330 nm for MESG to 360 nm for the product. The rate of ATP self-hydrolysis was measured in parallel. Error was calculated as the S.D. of at least three separate experiments (two in Fig. 4j).

HEK293T cells [2] = test: Cell cycle analysis by flow cytometry; format: cell-based; settings: 48-h overexpression of mCherry-tagged protein, EdU/PI; average of three independent experiments; control 34.5%
Procedure: For DNA content analysis, 10^6 cells previously transfected with mCherry MORC4 constructs and labeled with 25 µM Ethynyl deoxyUridine (EdU) for 1 h in 100 µL were washed with PBS (NaCl 137 mM, KCl 2.7 mM, Na2HPO4 10 mM, KH2PO4 1.8 mM) and fixed in ice cold 70% ethanol overnight. Fixed cells were washed and resuspended in PBS containing 0.05% NP40 and incubated at room temperature for 30 min. Cells were again washed with PBS. Cells were resuspended in Alexa Fluor 647 click staining solution (100 mM Tris pH 7.6, 4 mM CuSO4, 3 µM AF647 azide, 100 mM Sodium Ascorbate) for 1 h. Following staining, cells were washed with PBS and then stained for total DNA content using 10 μg/mL propidium iodide (PI) and 0.2 mg/ml RNase A for 60 min before analysis on a FACScan instrument. Data were analyzed using FlowJo (Version 10) with cells gated to remove doublets. EdU vs PI plots were gated in quadrants to identify G1, early S, late S and G2/M cells. S phase fractions were summed for total S phase population. […]

B1: MORC4 E56A: mCherry-tagged full-length MORC4 E56A mutant, catalytically impaired ATPase domain (protein, UniProt Q8TE76 1-937, looked up, variant E56A)
chain: MLLYRGAPAGPGAPGCGLARPGGGPQAFGIRLSTMSPRYLQSNSSSHTRPFSAIAALLDNAVDPDVSARTVFIDVEEVKNKSCLTFTDDGCGMTPHKLHRMLSFGFTDKVIKKSQCPIGVFGNGFKSGSMRLGKDALVFTKNGGTLTVGLLSQTYLECVQAQAVIVPIVPFNQQNKKMIITEDSLPSLEAILNYSIFNRENDLLAQFDAIPGKKGTRVLIWNIRRNKNGKSELDFDTDQYDILVSDFDTEEKMTGGVTSELPETEYSLRAFCGILYMKPRMKIFLRQKKVTTQMIAKSLANVEYDTYKPTFTNKQVRITFGFSCKNSNQFGIMMYHNNRLIKSFEKVGCQVKPTRGEGVGVIGVIECNFLKPAYNKQDFEYTKEYRLTINALAQKLNAYWKEKTSQDNFETSTVARPIPKVPDQTWVQCDECLKWRKLPGKIDPSMLPARWFCYYNSHPKYRRCSVPEEQELTDEDLCLSKAKKQEQTVEEKKKMPMENENHQVFSNPPKILTVQEMAGLNNKTIGYEGIHSPSVLPSGGEESRSPSLQLKPLDSSVLQFSSKYKWILGEEPVEKRRRLQNEMTTPSLDYSMPAPYRRVEAPVAYPEGENSHDKSSSERSTPPYLFPEYPEASKNTGQNREVSILYPGAKDQRQGSLLPEELEDQMPRLVAEESNRGSTTINKEEVNKGPFVAVVGVAKGVRDSGAPIQLIPFNREELAERRKAVESWNPVPYSVASAAIPAAAIGEKARGYEESEGHNTPKLKNQRELEELKRTTEKLERVLAERNLFQQKVEELEQERNHWQSEFKKVQHELVIYSTQEAEGLYWSKKHMGYRQAEFQILKAELERTKEEKQELKEKLKETETHLEMLQKAQVSYRTPEGDDLERALAKLTRLRIHVSYLLTSVLPHLELREIGYDSEQVDGILYTVLEANHILD
modifications: full-length mCherry tag
number of NBs compared to wild type (HEK293T cells [1]): significant increase in number of mCherry foci per cell | size of NBs compared to wild type (HEK293T cells [1]): significant decrease in mCherry foci size | number of NBs compared to wild type (HEK293T cells [1]; listed as E56A mutant of MORC4): notable increase in the number of NBs | size of NBs compared to wild type (HEK293T cells [1]; listed as E56A mutant of MORC4): decrease in the size of NBs | binding to 601 DNA (601 DNA): retains its DNA-binding activity; also recorded: binds DNA as WT MORC4 | catalytic (ATPase) activity of the protein (MORC4): catalytically impaired ATPase domain; also recorded: catalytically inactive | percent of cells in S phase (HEK293T cells [2]): 36.3%
